12 sequences from the DeepSol protein solubility set can be followed below.

A short description of this data set: soluble on expression in E. coli; label from the status in PepcDB or PDB records.
For the sequence “MAGTTTYELIDYLEGKDILVVSNGLSHIDTLIQKNIKCYVIGGNIKISTKAITGCDALMCLSKFRFDKCFIGANGVHHTYGLTTPDTEEAILKECAINNSRKAYVLADDSKFGEISTIKFSDINKCVIITNEKPKDNTYDKKTDIKVVDILEHHHHHH”, the “soluble on expression in E. coli” value is on record as “not soluble”.

Regarding “MAGVAEFNDKGELLLPKNYREWVMVGTQVTPNELNDGKAPFTEIRTVYVDPESYAHWKKTGEFRDGTVTVKELVSVGDRKGPGSGNGYFMGDYIGLEASVKDSQRFANEPGNWAFYIFYVPDTPLVAAAKNLPTAECAACHKENAKTDMVFTQFYPVLRAAKATGESGVVAPKKLAAALEHHHHHH”, the “soluble on expression in E. coli” value was “soluble”.

Regarding “MAGVKYPGQDPVDLDIYQSSHMVDYQPYRKHKYSRVTPQEQAKLDAQLRDKEFYRPIPNPNPKLTDGYPAFKRPHMTAKDLGLPGFFPSQEHEATREDERKFTSTCHFTYPASHDLHLAQGDPNQVLQSADFPCLVDPKHQPAAEMAKGYLLLPGCPCLHCHIVKVPILNRWGPLMPFYQ”, the “soluble on expression in E. coli” value was “not soluble”.

“MAHHHHHHEAVVTPWSVEGDVNYDKLIKDFGSHAIDEALLERIERVLGKKPHHFLRRGIFFSHRDLNLLLDVYESGQPFYLYTGRGPSSESMHMGHLIPFMFTKWLQDSFRVPLVIQMTDDEKFYFRNIPMEQVEAMTTENIKDIIAMGFDPELTFIFRDFDYMGCMYRTVAKIERAFTASQVRGCFGFAMEDNCGRWMFPAIQAAPSFSAAFPHIFPPSMGNVFCLIPQAIDQDPYFRLTRDIAPRLGYLKPAVIHSKFFPGLSGPKGKMSSSSGTAVLLTDTEKMVKDKINKHAFSGGGATKQEHFLLGANVEVDVPIQWLSFFLEDDEELARVKKEYMLGRIMTGEVKKLLINTITAITKTHQEKRKLVTDEDVQLFTSTRIMGPAKKAATQ”: the “soluble on expression in E. coli” value was “soluble”.

In the case of “MAHHHHHHGHHHQLENLYFQGEETAVPENSGANTELVSGESEHSTNEADKQNEGEHARENKLEKAEGVATASETASPASNEAATTETAEAASAAKPEEKASEVVAETPSAEAKPKSDKETEAKPEATNQGDESKPAAEANKTEKEVQPDVPKNTEKTLKPKEIKFNSWEELLKWEPGAREDDAINRGSVVLASRRTGHLVNEKASKEAKVQALSNTNSKAKDHASVGGEEFKAYAFDYWQYLDSMVFWEGLVPTPDVIDAGHRNGVPVYGTLFFNWSNSIADQERFAEALKQDADGSFPIARKLVDMAKYYGYDGYFINQETTGDLVKPLGEKMRQFMLYSKEYAAKVNHPIKYSWYDAMTYNYGRYHQDGLGEYNYQFMQPEGDKVPADNFFANFNWDKAKNDYTIATANWIGRNPYDVFAGLELQQGGSYKTKVKWNDILDENGKLRLSLGLFAPDTITSLGKTGEDYHKNEDIFFTGYQGDPTGQKPGDKDWYGIANLVADRTPAVGNTFTTSFNTGHGKKWFVDGKVSKDSEWNYRSVSGVLPTWRWWQTSTGEKLRAEYDFTDAYNGGNSLKFSGDVAGKTDQDVRLYSTKLEVTEKTKLRVAHKGGKGSKVYMAFSTTPDYKFDDADAWKELTLSDNWTNEEFDLSSLAGKTIYAVKLFFEHEGAVKDYQFNLGQLTISDNHQEPQSPTSFSVVKQSLKNAQEAEAVVQFKGNKDADFYEVYEKDGDSWKLLTGSSSTTIYLPKVSRSASAQGTTQELKVVAVGKNGVRSEAATTTFDWGMTVKDTSLPKPLAENIVPGATVIDSTFPKTEGGEGIEGMLNGTITSLSDKWSSAQLSGSVDIRLTKSRTVVRWVMDHAGAGGESVNDGLMNTKDFDLYYKDADGEWKLAKEVRGNKAHVTDITLDKPITAQDWRLNVVTSDNGTPWKAIRI”, the “soluble on expression in E. coli” value is “soluble”.

“MAHHHHHHMAAADQLRYAAQMIELARSEEREDGNPLTAARCYTTAMEVIASEASKRAAMIESNEARRFFLFQVRSKLEMYHERAELLLQVANGSGLLDKPSLSNGDASALQTNYPPALFASAVANEKSSSGNGGVASCSTGGGVSVLGIPLQPQQMAPSAPPTQTQSSYGDFKEPPMSCYLKPDDDATAEPPPVTPELNLDELMKNLGAPPEL”: the “soluble on expression in E. coli” value is reported as “not soluble”.

As for “MAHHHHHHMAADEDAREHRTMCRLLQAATGKLSDMTVTTNIETHIATLRAANMSTSPKEWHALFNSKNNSNAYEKLSAEGKKEAGALGGAAAWGAWRTDKEEAEKKKIGTQEDKDFPAIADARQQFAAHNRLLELTAKAVEISKKWKAAKDFITNDETNNIQKLLREALYEDGAAADALTQSTSFGTGSNWASHCNGDDKRKSISGDFLCMRGGSGGAAKECSGAFTGAEIDNQGTITTKWADLKASCALNTENVITPHEIAAALGSLARQPHTTRSSK”, the “soluble on expression in E. coli” value was “not soluble”.

Take “MAHHHHHHMAARTDDPRLLSLFSAQREEDADIVIIGFPYDEGCVRNGGRAGAKKGPAAFRFFLQRLGSVNNLELNVDASHLKLYDAGDITASTLEEAHEKLESKVFTVLARGAFPFVIGGGNDQSAPNGRAMLRAFPGDVGVINVDSHLDVRPPLQDGRVHSGTPFRQLLEESSFSGKRFVEFACQGSQCGALHAQYVRDHQGHLMWLSEVRKKGAVAALEDAFGLTGKNTFFSFDVDSLKSSDMPGVSCPAAVGLSAQEAFDMCFLAGKTPTVMMMDMSELNPLVEEYRSPRVAVYMFYHFVLGFATRPKPKAEN”: the “soluble on expression in E. coli” value is given as “soluble”.

In the case of “MAHHHHHHMADTEAVAGTEAIPPTQNEQHDSAAKKKQANSYYYWHNHEKERAKVGDVAPMPKPVLLKKSDPSVLPASTASYPITKHSWCDGKKNVTVYIDTKLDEKETMVEDTLQVEFGKRRLTVSYIANVQTSKDVATQRRKQLVLCLAKAIKSKESSYKVKDPSGQIVIRLAKAEETSWWELAKKDGKLSDADDSDEENEGKADEGDGAAEEKA”, the “soluble on expression in E. coli” value is “soluble”.

“MAHHHHHHMAGEPYLVYLLRCLAHQSGLTQLSPHFAVPTTEIDSDDGGAVAVVTAGHSANHPSRLFWERCVVVGVRVEPTTKNLLQTGWETQPCSHCVSQDGAAADAHDSPSRRSRLCVLPLLYGGTQCGECGHALSLVPTWTRALYLVLQRRDRSRAAAVAYGEEVHRHLWLGVTIDALLYTSATEQQQQLLVVHAAAGPAAAAPSATLPCAETTKGAFHIICQDERVNRLGLKWGDGTAFSAAANLHDVARRVAPQLQGQAHVKRLLLLVVLYIVYYGSHPAAAGSHRHPLHVLLVGPAKTGKSALLREVAQLIGLEAEVLDSTVVRTGGSGGAAGGSSFSAALPIRRSAVLMAGSGMTASTLVLDQLPSTAGGAAAMAPLLEAMERGHGCGAASGEGDAAAGGPDVHELPSTIIAAAGEESAAAVQLAPYFSLLAAVAPTNSLDDTAIISQDVVAASRARSSHSRATSRSMSRATQLSASSPHHSQRGPSISQSTSHRADPSSLSERLTHEDVCYLVRRAAEPVLLNSVVSHAACYDAFIDKLVDCAGLLEETQPSVCHALPPPSACRGQHRVGLPSAACDSLRAAPLAIDEHLRILCALSRARALLEHAEVLRDAGWTAQMRDEVWALYHGHLVAFADLMQRRSCSSGAMASRDPAEVLRTTSWSSSFFDACGGSTAAPAPAGYPSLSRFSGDAAALGRAWKGRMRAMSSREGLGLWHPQKTPSKKRCRLMFVEALRQRQCLSAQVESAVPPPEVEHVFGLLGGSSAFGDPLDVVISQMQEEGLLLRRPGGWRSL”: the “soluble on expression in E. coli” value is reported as “not soluble”.

As to “MAHHHHHHMAHAVGFACPHMADPSMVRNVIGVRGRALSVVVDSTNAAMAARKHYDCDDIYGMELQDQNGDGSTLESHWSQRHAKDELMAPIGGAGDHTELTLAAFAELGCMRVNWKLAEPMGWGKKSGCELLQSKRSAPNMSEYSHIFCNRDEVVERCASDRYSRGFCRRSIIEFSKQHSMDSCPIIDPAMDVRDLEAVFEKEEYLSARPGDKPSSWCLDTLPTNTTDARYPEETYLSAATQAELKCLGMQVHLKNPEKRNVRWLPCTEEETITWDTPPYNKENVICPKYAEVCTISATGGSVIPVVSWDGEARVWSRTVPPASTGQGLPGASVPVAESIDPGRGTHTKDVVTAIPERNLLLQGPWRLSVLLLLLE”, the “soluble on expression in E. coli” value was “soluble”.

In the case of “MAHHHHHHMAIACDSPVITLYKPRENGMIMPCHPEMSTVENIGQITDAHRLVPTAVRFSEDSQWVISAGEDETLAVSSVRKLKRVFVCTEFITRRHCMAFMNTFTSLCILASPPETSVLIIAACATDGTVVQWVVNPATSRSSYTKKLQLHLGALVAMDIMRDGTGS”, the “soluble on expression in E. coli” value is listed as “not soluble”.
